Measurements as given in patent US20100151486A1, “OSTEOPONTIN FUNCTIONAL EPITOPES, MONOCLONAL ANTIBODIES AGAINST THE EPITOPES AND USES THEREOF” (SHANGHAI NATIONAL ENGINEERING RESEARCH CENTER OF A, priority 2007, published 2010).
“Also recorded” adds a separate entry of the source.

Columns and labels:
[1] = tested on: chicken embryo chorioallantoic membrane (CAM); assay: Chicken embryo chorioallantoic membrane (CAM) angiogenesis assay; type: in vivo; details: human OPN 250 ng + antibody 1 μg; P<0.01
Protocol: The Leghorn chicken embryos were purchased from the farm with a fertilization rate of >90%. The 8-day old chicken embryos were selected. After sterilization, a small hole was drilled in the center of the top air chamber of the embryo with a lancet, the surrounding shell with the inner membrane was removed with caution to create an opening of 1 cm×1 cm. Then the following analytes/gelatin sponge were added to the CAM surface: i) PBS; ii) HOPN; iii) human OPN (250 ng); iv) human OPN (250 ng)+the irrelevant antibody as control (1 μg); v) human OPN (250 ng)+the murine anti-OPN antibody 1A12 (1 μg); vi) human OPN (250 ng)+the murine-human chimeric anti-OPN antibody c1A12 (1 μg); vii) human OPN (250 ng)+the humanized anti-OPN antibody h1A1.2 (1 μg).
The analytes/gelatin sponge were added to the CAM surface, which was far away from the already-formed dense vascular network. […] The number of vessels within an area edging 2 mm from the edges of the carrier slide was counted under a dissecting microscope to study the angiogenesis using the “vascular index” (Ribatti, D., B. Nico, A. Vacca et al., The gelatin sponge-chorioallantoic membrane assay. Nat Protoc, 2006, 1 (1): 85-91). The number of vessel was counted at the same magnification under the dissecting microscope. The result in each sample group was expressed as “mean±standard deviation (x±S)”. […]

[2] = tested on: human vascular endothelial cell (HUVEC); assay: HUVEC proliferation by 3H-TdR incorporation; type: cell-based; details: M200+1% BSA+OPN+antibody; 24 hours
Protocol: HUVEC cell proliferation was measured by the ^3H-TdR incorporation method to determine the protective effect of OPN on cell survival and the inhibitory effect of the anti-OPN antibodies on the OPN protection. Each well of a 96-well plate was inoculated with 2×10^4 HUVECs and cultured in a complete medium for 24 hours. The cells were then treated as following for 24 hours: […]
iv. M200+1% BSA+OPN+murine anti-OPN antibody 1A12 v. M200+1% , BSA+OPN+human-murine chimeric anti-OPN antibody c1A12 vi. M200+1% BSA+OPN+humanized anti-OPN antibody h1A12 vii. M200+1% BSA+OPN+irrelevant antibody
24 hours later, 1 uCi/well ^3H-thymidine was added and, after being incubated at 37° C. for 6 hours, washed once with PBS. The plate was treated with ice-cold 10% trichloroacetic acid/H2O at 4° C. for 10 min, and then washed for two times with, ice-cold ddH2O. Cytolysis was conducted by adding into each well 0.1 ml of 0.5 N NaOH, 0.5% SDS at room temperature for 10 min. After adding 0.2 ml of 0.5 N HCl and mixing, the cells were collected using a multiple cell collector.

[3] = tested on: rabbit cornea; assay: OPN-induced rabbit corneal neovascularization; type: in vivo; details: pellet with 200 ng hOPN and 1 μg antibody
Protocol: The Hydron powder was dissolved in anhydrous ethanol under sterile condition to the final concentration of 12% (w/v), and dissolved with agitation under 37° C. to formulate the 12% Hydron cast solution, which was then stored at room temperature. A quota of sucralfate powder formulated in sterile Milli Q water under sterile conditions as a suspension with the final concentration of 100 μg/μl, which was stored at 4° C., and vortexed to homogeneous intermediately before use. Sustained-release pellets were prepared to each containing 200 ng hOPN and 50 μg sucralfate and, for the antibody groups, 1 μg anti-OPN antibodies, and for the control, the irrelevant antibody. The 12% Flydron east solution and the hOPN-sucralfate-PBS blend were mixed as the ratio of 1:1 (volume ratio), vortexed for 1 min. Then 5 μl mixed Hydron-sucralfate-hOPN solution was added onto a sterilized Parafilm surface, dried for about 30 min on a super-clean bench for a complete polymerization. The polymers were then shaped into uniform circular granules with a 2 mm diameter using an eye tweezers. The granules were stored at −20′C. Animals were grouped in the same way as in Experiment II-3, each group consisting of four eyes.
The rabbit was anesthetized at ear edge vein with 3% sodium pentobarbital (1 ml/kg body weight) and on both corneal surfaces with 1% tetracaine. The thickness of the cornea was measured using an ultrasonic cornea thickness gauge. A 3 mm half-depth incision was made at the center of the cornea using an ophthalmic knife, and an undermining tunnel toward the 12 o'clock or 3 o'clock position on the corneoscleral margin was made using a 2 mm-wide scleral tunnel knife, whereby the tunnel lied within the corneal layer with the top of the tunnel about 1 mm distant from the limbus corneae. The Hydron/sucralfate sustained-release pellet was implanted into the top of tunnel using micro-tweezers. The cuts were treated with chlortetracycline eye ointment after the surgery. From Day 1 after the surgery, the double-blinded observer observed the rabbit conical neovascularization under the slit-lamp each day, until the Day 10, The length (VL) and the vascular clock angle (CN, 30°=1CN) of the longest vessel were measured, and the area of neovascularization was calculated according to the following formula:
Area (mm^2)=0.2×π×VL (mm)×CN (mm)

[4] = tested on: MDA-MB-435s cells; assay: Spontaneous lung metastasis in nude mice (MDA-MB-435s); type: in vivo; details: 5 mg/kg, 2 times per week; histological sections
Protocol: The MDA-MB-435s cells were detached and re-suspended in serum-free DMEM to the concentration of 5×10^7 cells/ml. Each group of 10 female 4 to 6-week old nude mice were anaesthetized by injection of sodium pentobarbital (ip.). Under sterile condition, the skin was sterilized, and a small incision (0.5-mm) was made in the skin over the lateral thorax below the right limb. The mammary fat pads (mfp) were exposed and MDA-MB-435s cells (5×10^6 in 100 μl DMEM) were orthotopically injected into the mfps. The cut was then closed. The animals were randomly divided into four groups, and each accepted the treatment as specified below from the day after the tumor cell inoculation:
1A12: 5 mg/kg, 2 times per week;
Control antibody: 5 mg/kg, 2 times per week.
The tumor formation in nude mice was observed once a week, the maxima of the diameter (length) and a perpendicular dimension of the tumor (width) were measured using a caliper, and the volume was calculated as follows: Volume=0.52×length×width^2. The changed tumor volumes were plotted versus the time into a tumor growth curve.
The mice were sacrificed by cervical dislocation at the end of the 10th week after inoculation. For each group, tumor tissues were isolated, fixed with 10% neutral formalin and embedded in paraffin, and the tumor tissue and lung tissue were stained with H & E for analysis. […]

[5] = relative to irrelevant antibody group, P<0,01

B1: 1A12: murine anti-hOPN mAb; VH SEQ ID NO: 4, VL SEQ ID NO: 6; from hybridoma 1A12 (antibody, V domains shown)
VH: QVQLEQSGPELVKPGASVKMSCKSSGYTFTTYVMHWVKQKPGQGLEWIGYINPYNDGSKYNEKFKGKATLTSDKSSNTAYMELSSLTSEDSAVYYCASHYGGSPAYWGQGTLVTVSA
VL: DILMTQTPLSLPVSLGDQASISCRSSQSLVHSNGNTYLHWYLQKPGQSPKLLIYKVSNRFSGVPDRFSGSGSGTDFTLKISRVEAEDLGVYFCSQSTHVPWTFGGGTKLEIKR
modifications: amino acid sequence of the heavy chain variable region in 1A12; amino acid sequence of the light chain variable region in 1A12
notes: murine anti-hOPN mAb; from hybridoma 1A12
- inhibition of OPN-induced angiogenesis in CAM [1]: significantly inhibit
- 3H-TdR incorporation relative to the OPN group [2]: significantly lower
- corneal neovascularization relative to the OPN group [3]: significantly reduced
- area of neovascularization [3, 5]: significantly shrunk
- length of the newly generated blood vessels [3, 5]: significantly reduced
- number of the metastasis in lung [4]: reduced; also recorded: block tumor metastasis
- size of the metastasis in lung [4]: reduced
